The results in this text go back to publication PMC3498290, “Mimicking Insect Communication: Release and Detection of Pheromone, Biosynthesized by an Alcohol Acetyl Transferase Immobilized in a Microreactor” (PLoS ONE, 2012).

Substrate in the data set: CC/C=C/C=C\CCCCCCCCO
The data set is described as follows: batch acetylation assay, Hanes-Woolf plot. Format: biochemical, Acinetobacter baylyi. Particulars: free enzyme in batch, before immobilization; co-substrate acetyl-CoA (300 µM in the preliminary time course); alcohol 1.25 µM-1.3 mM.

B1: Acinetobacter wax synthase (atf, alcohol acetyl transferase; His6-tagged diacylglycerol acyl transferase) (Acinetobacter baylyi ADP1) (protein)
chain: MRPLHPIDFIFLSLEKRQQPMHVGGLFLFQIPDNAPDTFIQDLVNDIRISKSIPVPPFNNKLNGLFWDEDEEFDLDHHFRHIALPHPGRIRELLIYISQEHSTLLDRAKPLWTCNIIEGIEGNRFAMYFKIHHAMVDGVAGMRLIEKSLSHDVTEKSIVPPWCVEGKRAKRLREPKTGKIKKIMSGIKSQLQATPTVIQELSQTVFKDIGRNPDHVSSFQAPCSILNQRVSSSRRFAAQSFDLDRFRNIAKSLNVTINDVVLAVCSGALRAYLMSHNSLPSKPLIAMVPASIRNDDSDVSNRITMILANLATHKDDPLQRLEIIRRSVQNSKQRFKRMTSDQILNYSAVVYGPAGLNIISGMMPKRQAFNLVISNVPGPREPLYWNGAKLDALYPASIVLDGQALNITMTSYLDKLEVGLIACRNALPRMQNLLTHLEEEIQLFEGVIAKQEDIKTAN
notes: His6-tagged, pET23a, E. coli Rosetta(DE3)pLysS; Ni-NTA and gel filtration; tag kept; plasmid from S. Uthoff (Muenster)
The term Km denotes the substrate concentration at which the rate is half of its maximum. Consider B1, for which the Km is on record as 1.63 µM.
